Patent US20050226876A1 (Hoffmann-La Roche, published 2005)

How the values were obtained:
[1] = target: T1, human complement factor C3 (from human pooled serum) (human, UniProt P01024 23-1663, limits assumed); test: C3 ELISA, antibody coated, human pooled serum
T1 construct: The ELISA detects C3 (C3c) deposited on the coated antibody out of serum; also called C3c
Experimental: In principle, the ELISA plate is coated with concentration ranges of the antibody, to which human C1q or human pooled serum, as a source of C3, is added. C1q or […] binding is detected by an antibody directed against human C1q or […] followed by a peroxidase-labeled conjugate.

[2] = target: T2, cynomologus P-selectin (on thrombin-activated cynomologus platelets) (cynomologus monkey); test: cell-based or functional assay
T2 chain: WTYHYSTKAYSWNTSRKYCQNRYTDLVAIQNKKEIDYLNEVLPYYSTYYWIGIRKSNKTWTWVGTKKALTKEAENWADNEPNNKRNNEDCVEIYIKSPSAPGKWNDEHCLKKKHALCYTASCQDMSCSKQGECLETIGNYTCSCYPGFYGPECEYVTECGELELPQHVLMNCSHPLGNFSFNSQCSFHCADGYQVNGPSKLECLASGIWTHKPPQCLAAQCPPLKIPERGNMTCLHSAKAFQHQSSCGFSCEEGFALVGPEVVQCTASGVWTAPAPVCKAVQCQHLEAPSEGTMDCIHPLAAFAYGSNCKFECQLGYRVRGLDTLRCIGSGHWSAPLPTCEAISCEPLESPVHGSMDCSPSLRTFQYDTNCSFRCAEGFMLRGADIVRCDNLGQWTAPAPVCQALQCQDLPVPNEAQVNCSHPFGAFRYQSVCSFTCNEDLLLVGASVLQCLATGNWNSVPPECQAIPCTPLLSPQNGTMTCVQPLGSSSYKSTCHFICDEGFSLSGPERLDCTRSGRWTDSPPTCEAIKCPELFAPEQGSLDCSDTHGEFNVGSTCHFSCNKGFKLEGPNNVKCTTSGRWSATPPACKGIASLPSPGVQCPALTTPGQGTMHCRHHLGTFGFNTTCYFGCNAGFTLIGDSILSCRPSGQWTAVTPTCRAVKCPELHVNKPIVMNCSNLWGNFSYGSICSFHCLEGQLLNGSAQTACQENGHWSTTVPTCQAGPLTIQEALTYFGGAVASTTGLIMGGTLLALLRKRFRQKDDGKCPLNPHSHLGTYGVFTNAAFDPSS

[3] = target: T3, Fcγ receptor on human NK cells (FcγRIII) (human, UniProt P08637 17-254); test: FACS on NK cells from human blood, antibody 10 µg/ml; no antibody: 0.03
T3 construct: whole, on cells; also called FcγR presented on NK cells
T3 sequence (P08637 17-254): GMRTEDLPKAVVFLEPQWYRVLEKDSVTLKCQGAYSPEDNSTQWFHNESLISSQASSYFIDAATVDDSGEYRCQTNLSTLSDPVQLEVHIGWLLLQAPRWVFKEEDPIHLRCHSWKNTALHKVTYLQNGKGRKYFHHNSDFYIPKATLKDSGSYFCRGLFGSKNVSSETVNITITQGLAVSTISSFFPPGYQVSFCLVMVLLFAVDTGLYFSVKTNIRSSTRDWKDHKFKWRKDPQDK

[4] = target: T4, P-selectin on thrombin-activated human platelets (human, UniProt P16109 42-830); test: cell-based or functional assay
T4 sequence (looked up): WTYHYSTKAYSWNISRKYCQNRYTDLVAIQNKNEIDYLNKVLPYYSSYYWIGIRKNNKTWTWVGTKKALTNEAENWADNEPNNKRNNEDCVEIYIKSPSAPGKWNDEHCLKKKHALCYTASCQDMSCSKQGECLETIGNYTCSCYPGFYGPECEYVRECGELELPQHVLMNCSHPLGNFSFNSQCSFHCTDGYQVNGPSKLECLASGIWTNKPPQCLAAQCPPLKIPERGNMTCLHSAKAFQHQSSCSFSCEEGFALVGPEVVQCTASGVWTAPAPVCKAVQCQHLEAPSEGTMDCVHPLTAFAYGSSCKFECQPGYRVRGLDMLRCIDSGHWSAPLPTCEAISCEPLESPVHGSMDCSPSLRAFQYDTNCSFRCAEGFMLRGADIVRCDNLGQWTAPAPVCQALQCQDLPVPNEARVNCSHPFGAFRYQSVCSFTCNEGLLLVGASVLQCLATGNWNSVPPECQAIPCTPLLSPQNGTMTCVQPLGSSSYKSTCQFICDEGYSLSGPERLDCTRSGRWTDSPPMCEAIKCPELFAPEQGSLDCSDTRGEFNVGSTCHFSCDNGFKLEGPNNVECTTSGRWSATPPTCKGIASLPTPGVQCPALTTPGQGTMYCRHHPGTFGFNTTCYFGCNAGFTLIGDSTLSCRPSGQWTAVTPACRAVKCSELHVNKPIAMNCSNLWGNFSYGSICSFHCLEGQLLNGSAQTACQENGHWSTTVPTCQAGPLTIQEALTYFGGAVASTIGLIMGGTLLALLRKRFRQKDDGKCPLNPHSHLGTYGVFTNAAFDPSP

[5] = target: T5, rat P-selectin (on thrombin-activated rat platelets) (rat, UniProt P98106 42-768); test: rosetting assay: adhesion of thrombin-activated rat platelets to HL60 cells, FACS; absence of inhibition, shown as lack of cross-reactivity with rat P-selectin
T5 construct: whole, on cells
T5 sequence (looked up): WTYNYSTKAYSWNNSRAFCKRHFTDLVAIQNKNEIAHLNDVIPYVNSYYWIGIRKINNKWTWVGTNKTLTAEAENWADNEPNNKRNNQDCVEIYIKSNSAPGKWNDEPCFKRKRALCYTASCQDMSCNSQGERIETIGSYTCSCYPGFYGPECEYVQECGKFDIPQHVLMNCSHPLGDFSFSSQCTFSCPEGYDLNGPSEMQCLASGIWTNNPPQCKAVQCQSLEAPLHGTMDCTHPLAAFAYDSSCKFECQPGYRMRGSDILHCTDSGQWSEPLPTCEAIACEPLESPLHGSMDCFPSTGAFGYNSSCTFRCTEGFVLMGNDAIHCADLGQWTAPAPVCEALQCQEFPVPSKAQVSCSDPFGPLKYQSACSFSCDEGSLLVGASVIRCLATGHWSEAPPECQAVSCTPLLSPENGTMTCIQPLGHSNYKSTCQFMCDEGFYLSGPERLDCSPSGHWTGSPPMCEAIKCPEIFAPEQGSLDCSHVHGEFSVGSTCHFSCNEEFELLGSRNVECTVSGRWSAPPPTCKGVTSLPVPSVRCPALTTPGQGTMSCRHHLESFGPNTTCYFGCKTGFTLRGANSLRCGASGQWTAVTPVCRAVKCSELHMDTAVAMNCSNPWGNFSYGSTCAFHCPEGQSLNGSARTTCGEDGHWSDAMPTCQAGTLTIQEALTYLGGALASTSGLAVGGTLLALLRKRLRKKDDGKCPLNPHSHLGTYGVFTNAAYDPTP

T1 sequence (P01024 23-1663 limits assumed): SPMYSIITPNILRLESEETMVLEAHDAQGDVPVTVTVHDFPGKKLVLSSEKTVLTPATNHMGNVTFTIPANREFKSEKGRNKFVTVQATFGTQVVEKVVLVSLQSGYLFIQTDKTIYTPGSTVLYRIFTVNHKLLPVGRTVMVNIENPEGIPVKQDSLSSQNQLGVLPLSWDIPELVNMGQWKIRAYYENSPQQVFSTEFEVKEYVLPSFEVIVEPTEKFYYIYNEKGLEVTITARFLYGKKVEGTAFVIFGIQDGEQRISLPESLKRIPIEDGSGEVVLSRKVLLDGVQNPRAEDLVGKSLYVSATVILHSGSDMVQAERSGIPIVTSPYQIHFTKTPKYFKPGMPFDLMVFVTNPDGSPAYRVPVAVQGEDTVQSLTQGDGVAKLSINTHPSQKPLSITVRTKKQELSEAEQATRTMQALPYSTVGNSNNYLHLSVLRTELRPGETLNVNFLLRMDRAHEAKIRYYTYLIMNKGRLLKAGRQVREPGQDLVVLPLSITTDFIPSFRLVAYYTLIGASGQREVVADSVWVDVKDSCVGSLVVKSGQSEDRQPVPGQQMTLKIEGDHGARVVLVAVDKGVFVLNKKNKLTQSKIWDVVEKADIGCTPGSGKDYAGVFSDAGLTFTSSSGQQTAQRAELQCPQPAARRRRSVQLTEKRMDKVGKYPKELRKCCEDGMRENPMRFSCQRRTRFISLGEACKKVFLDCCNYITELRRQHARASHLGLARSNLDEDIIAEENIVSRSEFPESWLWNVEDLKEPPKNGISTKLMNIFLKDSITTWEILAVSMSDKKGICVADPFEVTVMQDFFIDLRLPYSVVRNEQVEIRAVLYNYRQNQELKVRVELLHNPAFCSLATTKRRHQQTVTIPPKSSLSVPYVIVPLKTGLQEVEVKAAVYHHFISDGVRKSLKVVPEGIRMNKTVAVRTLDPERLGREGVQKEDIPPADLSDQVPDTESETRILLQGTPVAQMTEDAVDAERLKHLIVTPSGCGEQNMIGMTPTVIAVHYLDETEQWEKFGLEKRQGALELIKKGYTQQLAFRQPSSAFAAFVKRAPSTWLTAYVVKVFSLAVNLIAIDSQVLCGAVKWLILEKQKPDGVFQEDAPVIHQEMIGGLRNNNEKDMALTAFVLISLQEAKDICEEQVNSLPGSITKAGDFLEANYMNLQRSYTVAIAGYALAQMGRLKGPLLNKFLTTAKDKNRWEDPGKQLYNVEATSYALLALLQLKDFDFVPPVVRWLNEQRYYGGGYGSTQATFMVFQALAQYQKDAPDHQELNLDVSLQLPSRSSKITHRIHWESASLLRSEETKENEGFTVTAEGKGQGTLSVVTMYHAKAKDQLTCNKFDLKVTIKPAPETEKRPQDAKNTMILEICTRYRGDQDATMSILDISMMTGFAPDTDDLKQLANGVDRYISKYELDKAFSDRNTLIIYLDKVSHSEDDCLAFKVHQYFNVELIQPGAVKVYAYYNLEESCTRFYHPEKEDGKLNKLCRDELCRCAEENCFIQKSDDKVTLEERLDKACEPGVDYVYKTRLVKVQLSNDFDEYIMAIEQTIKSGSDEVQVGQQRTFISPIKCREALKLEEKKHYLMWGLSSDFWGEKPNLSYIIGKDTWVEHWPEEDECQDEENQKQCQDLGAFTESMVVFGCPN

- binding result [1]: no binding
- IC50 (read off the curve), rosetting assay with thrombin-activated cynomologus platelets and HL60 cells [2]: ~0.2 µg/ml
- % NK cells binding antibody [3]: 0.12%
- IC50 (read off the curve), rosetting assay with thrombin-activated human platelets and HL60 cells [4]: ~0.08 µg/mL
- binding result [5]: no binding (tested: 100 µg/ml)
B1: HuMab 002 Fc variant IgG1v1 (PVA-236; GLPSS331: E233P; L234V; L235A; delta G236; A327G; A330S; P331S) (antibody)
heavy: EVQLVESGGGLVRPGGSLRLSCAASGFTFSNYDMHWVRQATGKGLEWVSAITAAGDIYYPGSVKGRFTISRENAKNSLYLQMNSLRAGDTAVYYCARGRYSGSGSYYNDWFDPWGQGTLVTVSSASTKGPSVFPLAPSSKSTSGGTAALGCLVKDYFPEPVTVSWNSGALTSGVHTFPAVLQSSGLYSLSSVVTVPSSSLGTQTYICNVNHKPSNTKVDKKVEPKSCDKTHTCPPCPAPPVAGPSVFLFPPKPKDTLMISRTPEVTCVVVDVSHEDPEVKFNWYVDGVEVHNAKTKPREEQYNSTYRVVSVLTVLHQDWLNGKEYKCKVSNKGLPSSIEKTISKAKGQPREPQVYTLPPSRDELTKNQVSLTCLVKGFYPSDIAVEWESNGQPENNYKTTPPVLDSDGSFFLYSKLTVDKSRWQQGNVFSCSVMHEALHNHYTQKSLSLSPGK
light: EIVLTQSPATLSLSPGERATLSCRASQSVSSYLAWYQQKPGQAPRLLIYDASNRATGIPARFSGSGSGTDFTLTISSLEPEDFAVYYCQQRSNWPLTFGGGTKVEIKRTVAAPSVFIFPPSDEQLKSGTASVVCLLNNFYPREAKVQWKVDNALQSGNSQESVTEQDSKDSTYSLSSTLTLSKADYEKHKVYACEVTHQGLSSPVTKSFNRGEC
notes: copies: 2 + 2
